Broadly, the stoichiometry N is a count of units in the complex or per binding partner.

This experiment addresses Lrp transcriptional regulator from Haloferax mediterranei (HFX_RS01210) (Haloferax mediterranei). Description: SEC; Superose6 Increase 10/300 GL, 50 mM Tris-HCl pH 8.0, 150 mM NaCl; molecular mass estimated against standard proteins of 6.5 to 660 kDa in the same buffer.

Turning to “Lrp transcriptional regulator from Haloferax mediterranei (HFX_RS01210) (natural protein)”, the stoichiometry N is 4.

Source of the values: paper PMC8229911.
